Source: US20210403600A1 (University of California, published 2021)
Numbering of substitutions follows the chain as printed.

Tests used:
[1] = target: T1, human Factor XIa (blood-derived, Haematologic Technologies Inc.) (human, UniProt P03951 19-387; P03951 388-625); assay: ELISA, wells coated with hFXIa, anti-human IgG HRP, OD 450
T1 construct: It was biotinylated via primary amines for selections, Octet and Biacore; also called FXIa; human FXIa

[2] = target: T1, human Factor XIa (blood-derived, …); assay: SPR (Biacore T200), biotinylated FXIa captured on a CAP chip, Fab as analyte, 37 C
Cyno FXI = target: T2, Cyno FXI (Macaca fascicularis, UniProt A0A2K5VVW4); assay: ELISA, wells coated with cynomolgus FXI (zymogen), anti-human IgG HRP, OD 450
T2 construct: coating antigen 'FXI' of the chart titled 'Cyno FXI/FXIA'; also called cynomolgus monkey FXI (zymogen)

[3] = target: T1, human Factor XIa (blood-derived, …); assay: SPR (Biacore T200), biotinylated FXIa captured on a CAP chip, IgG as analyte, 25 C

B1: Clone 24 IgG (antibody, V domains shown)
VH: EVQLVQSGAEVKKPGASVKVSCKASGYTFTGYYMHWVRQAPGQGLEWMGWIDPDSGDTNYAQKFQGRVTMTRDTSISTAYMELSRLRSDDTAVYYCARLASGFRDYWGQGTLVTVSS
VL: DIVMTKSPSSLSASVGDRVTITCRASQGIRNDLGWYQQKPGKAPKRLIYAASSLQSGVPSRFSGSGSGTEFTLTISSLQPEDFATYYCLQHDIYASTFGPGTKVDIKR
notes: also called C24
[1]
  EC50 (read off the curve): ~1 ng/mL

B2: DEF Fab (Fab, V domains shown)
VH: B1 VH with S55E
VL: B1 VL with R108T
[2]
  Kd: 33.9 pM

B3: C24 Fab (Fab, V domains shown)
VH: B1 VH
VL: B1 VL
notes: Fab format of clone 24; also called clone 24 Fab; anti-FXIa C24 Fab
[2]
  Kd: 15.2 pM

B4: D4 IgG (antibody, V domains shown)
VH: not shown
VL: B1 VL with K6Q
notes: also called D4 mAb; D4 anti-FXIa mAb
Cyno FXI
  binding result: no binding (tested: not printed)
[3]
  Kd: 930 pM
